Measured values from paper PMC5739284 (Nature microbiology, 2017).

Target: GST-His6-LC3B (recombinant) (human, UniProt Q9GZQ8 1-120)
Assay: pull-down

B1: synthetic p62 LIR peptide (peptide)
peptide: SGGDDDWTHLSSK
binding result: binds
